Data taken from patent US12605469B2, “Tumor specific antibody conjugates and uses therefor” (The University of North Carolina at Charlotte, priority 2019, dated 2026).

These binders were tested against T1, human MUC1 antigen in plate ELISA (KCM lysate) (human, UniProt P15941 24-1255, limits assumed, tumor-associated glycosylation, not specified further) (assay: sandwich ELISA: hybridoma antibody coat, KCM lysate 10 µg/mL, test antibody in 5-fold dilutions, HRP goat anti-human IgG).
T1 sequence (P15941 other isoform, or with tags, fused parts or gaps limits assumed): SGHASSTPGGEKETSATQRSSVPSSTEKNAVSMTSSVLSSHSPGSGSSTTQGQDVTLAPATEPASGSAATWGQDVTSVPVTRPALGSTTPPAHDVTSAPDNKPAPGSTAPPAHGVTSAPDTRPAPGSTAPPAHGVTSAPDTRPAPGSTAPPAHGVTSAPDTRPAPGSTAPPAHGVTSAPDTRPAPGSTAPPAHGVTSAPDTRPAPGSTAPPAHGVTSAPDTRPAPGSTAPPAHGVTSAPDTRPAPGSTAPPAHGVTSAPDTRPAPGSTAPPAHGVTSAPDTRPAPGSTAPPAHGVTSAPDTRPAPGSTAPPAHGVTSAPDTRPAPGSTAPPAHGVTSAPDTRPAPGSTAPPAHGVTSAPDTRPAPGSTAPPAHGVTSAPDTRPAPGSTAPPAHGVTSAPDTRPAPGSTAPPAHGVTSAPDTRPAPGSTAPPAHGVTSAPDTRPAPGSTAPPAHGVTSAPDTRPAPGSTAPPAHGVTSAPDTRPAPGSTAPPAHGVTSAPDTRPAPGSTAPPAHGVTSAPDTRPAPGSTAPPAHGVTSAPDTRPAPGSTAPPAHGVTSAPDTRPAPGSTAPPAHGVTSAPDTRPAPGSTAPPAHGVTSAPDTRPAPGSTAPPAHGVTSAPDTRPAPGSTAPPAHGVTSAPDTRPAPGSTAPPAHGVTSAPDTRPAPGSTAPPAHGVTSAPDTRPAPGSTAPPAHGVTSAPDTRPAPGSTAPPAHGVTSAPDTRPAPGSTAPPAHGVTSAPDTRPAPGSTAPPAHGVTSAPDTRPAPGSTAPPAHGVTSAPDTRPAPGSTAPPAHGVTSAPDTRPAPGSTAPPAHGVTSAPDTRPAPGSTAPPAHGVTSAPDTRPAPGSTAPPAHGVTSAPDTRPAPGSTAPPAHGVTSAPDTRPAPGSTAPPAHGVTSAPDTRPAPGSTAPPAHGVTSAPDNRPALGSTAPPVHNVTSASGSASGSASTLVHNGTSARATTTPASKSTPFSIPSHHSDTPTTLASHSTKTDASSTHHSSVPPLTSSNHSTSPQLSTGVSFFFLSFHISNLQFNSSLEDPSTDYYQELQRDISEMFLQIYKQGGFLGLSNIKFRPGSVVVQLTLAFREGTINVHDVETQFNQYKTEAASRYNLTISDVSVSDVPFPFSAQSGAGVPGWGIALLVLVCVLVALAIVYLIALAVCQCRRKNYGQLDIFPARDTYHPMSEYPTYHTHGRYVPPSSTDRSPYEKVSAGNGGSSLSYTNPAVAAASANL

Binder	binding result
Humanized HC1 + LC1 (antibody, human IgG2, kappa, V domains shown, also called H6245 + L6245) VH: QVQLVQSGAEVKKPGASVKVSCKASGYTFTNYWMHWVRQAPGQGLEWMGYINPSSGYTQYNQKFQGRVTMTRDTSTSTVYMELSSLRSEDTAVYYCSTYYGDYLFPYWGQGTLVTVSS VL: DVVMTQSPLSLPVTLGQPASISCRSSQDIVYGNGNTYLEWFQQRPGQSPRLLIYKVSNRFSGVPDRFSGSGSGTDFTLKISRVEAEDVGVYYCFQGSHVPYTFGQGTKLEIKR	no binding
Humanized HC2 + LC1 (antibody, human IgG2, kappa, V domains shown, Listing: IgG2 heavy chain; also called H6246 + L6245) VH: QVQLVQSGAEVKKPGASVKVSCKASGYTFTNYWMHWVRQAPGQGLEWMGYINPSSGYTQYNQKFQGRVTMTADTSTSTVYMELSSLRSEDTAVYYCSTYYGDYLFPYWGQGTLVTVSS VL: DVVMTQSPLSLPVTLGQPASISCRSSQDIVYGNGNTYLEWFQQRPGQSPRLLIYKVSNRFSGVPDRFSGSGSGTDFTLKISRVEAEDVGVYYCFQGSHVPYTFGQGTKLEIKR	no binding
Humanized HC3 + LC1 (antibody, human IgG2, kappa, V domains shown, Listing: IgG2 heavy chain; also called H6247 + L6245) VH: EVQLVQSGAEVKKPGASVKVSCKASGYTFTNYWMHWVRQAPGQGLEWMGYINPSSGYTQYNQKFQGWVTMTADTSISTAYMELSRLRSDDTAVYYCSTYYGDYLFPYWGQGTLVTVSS VL: DVVMTQSPLSLPVTLGQPASISCRSSQDIVYGNGNTYLEWFQQRPGQSPRLLIYKVSNRFSGVPDRFSGSGSGTDFTLKISRVEAEDVGVYYCFQGSHVPYTFGQGTKLEIKR	no binding

These binders were tested against T1, human MUC1 antigen in plate ELISA (KCM …) (assay: sandwich ELISA: hybridoma antibody coat, KCM lysate 10 µg/mL, test antibody in 5-fold dilutions, HRP goat anti-human IgG, OD450).

Binder	EC50 [mg/L]
Chimeric parental antibody (H4965 + L4965) (antibody, IgG1, V domains shown, also called pp 9854; Chimeric Parental HC) VH: EVQLQQSGGERATPGASVKMSCKTSGYTFTNYWMHWVKQRPGQGLEWIGYINPSSGYTQYNQKFKDKATLTADKSSSTAYIQLSSLTSEDSAVYYCSTYYGDYLFPYWGQGTLVTVSA VL: DVLMTQTPLSLPVSLGDQASISCRSSQDIVYGNGNTYLEWYLQKPGQSPKLLIYKVSNRFSGVPDRFSGSGSGTDFTLKISRVEAEDLGVYYCFQGSHVPYTFGGGTKLEIKR	0.006
Humanized HC2 + LC2 (antibody, human IgG2, kappa, V domains shown, Listing: IgG2 heavy chain; also called H6246 + L6246) VH: QVQLVQSGAEVKKPGASVKVSCKASGYTFTNYWMHWVRQAPGQGLEWMGYINPSSGYTQYNQKFQGRVTMTADTSTSTVYMELSSLRSEDTAVYYCSTYYGDYLFPYWGQGTLVTVSS VL: DVVMTQSPLSLPVTLGQPASISCRSSQDIVYGNGNTYLEWYQQRPGQSPRLLIYKVSNRFSGVPDRFSGSGSGTDFTLKISRVEAEDVGVYYCFQGSHVPYTFGQGTKLEIKR	0.032
Humanized HC1 + LC2 (antibody, human IgG2, kappa, V domains shown, Listing: IgG2 heavy chain; also called H6245 + L6246) VH: QVQLVQSGAEVKKPGASVKVSCKASGYTFTNYWMHWVRQAPGQGLEWMGYINPSSGYTQYNQKFQGRVTMTRDTSTSTVYMELSSLRSEDTAVYYCSTYYGDYLFPYWGQGTLVTVSS VL: DVVMTQSPLSLPVTLGQPASISCRSSQDIVYGNGNTYLEWYQQRPGQSPRLLIYKVSNRFSGVPDRFSGSGSGTDFTLKISRVEAEDVGVYYCFQGSHVPYTFGQGTKLEIKR	0.055
Humanized HC1 + LC3 (antibody, human IgG2, kappa, V domains shown, Listing: IgG2 heavy chain; also called H6245 + L6247) VH: QVQLVQSGAEVKKPGASVKVSCKASGYTFTNYWMHWVRQAPGQGLEWMGYINPSSGYTQYNQKFQGRVTMTRDTSTSTVYMELSSLRSEDTAVYYCSTYYGDYLFPYWGQGTLVTVSS VL: DIVLTQSPLSLPVTLGQPASISCRSSQDIVYGNGNTYLEWYQQRPGQSPRLLIYKVSNRFSGVPDSFSGSGSGTDFTLTISRVEAEDVGIYYCFQGSHVPYTFGEGTKLEIKR	0.051
Humanized HC2 + LC3 (antibody, human IgG2, kappa, V domains shown, Listing: IgG2 heavy chain; also called H6246 + L6247) VH: QVQLVQSGAEVKKPGASVKVSCKASGYTFTNYWMHWVRQAPGQGLEWMGYINPSSGYTQYNQKFQGRVTMTADTSTSTVYMELSSLRSEDTAVYYCSTYYGDYLFPYWGQGTLVTVSS VL: DIVLTQSPLSLPVTLGQPASISCRSSQDIVYGNGNTYLEWYQQRPGQSPRLLIYKVSNRFSGVPDSFSGSGSGTDFTLTISRVEAEDVGIYYCFQGSHVPYTFGEGTKLEIKR	0.027
Humanized HC3 + LC2 (antibody, human IgG2, kappa, V domains shown, Listing: IgG2 heavy chain; also called H6247 + L6246) VH: EVQLVQSGAEVKKPGASVKVSCKASGYTFTNYWMHWVRQAPGQGLEWMGYINPSSGYTQYNQKFQGWVTMTADTSISTAYMELSRLRSDDTAVYYCSTYYGDYLFPYWGQGTLVTVSS VL: DVVMTQSPLSLPVTLGQPASISCRSSQDIVYGNGNTYLEWYQQRPGQSPRLLIYKVSNRFSGVPDRFSGSGSGTDFTLKISRVEAEDVGVYYCFQGSHVPYTFGQGTKLEIKR	0.007
Humanized HC3 + LC3 (antibody, human IgG2, kappa, V domains shown, Listing: IgG2 heavy chain; also called H6247 + L6247) VH: EVQLVQSGAEVKKPGASVKVSCKASGYTFTNYWMHWVRQAPGQGLEWMGYINPSSGYTQYNQKFQGWVTMTADTSISTAYMELSRLRSDDTAVYYCSTYYGDYLFPYWGQGTLVTVSS VL: DIVLTQSPLSLPVTLGQPASISCRSSQDIVYGNGNTYLEWYQQRPGQSPRLLIYKVSNRFSGVPDSFSGSGSGTDFTLTISRVEAEDVGIYYCFQGSHVPYTFGEGTKLEIKR	0.004

Each binder was assayed against T2, human MUC1, tumor-associated form (tMUC), on tumor cells and tumor tissue (human, UniProt P15941 24-1255, tumor-associated (aberrant) glycosylation, not specified further) (assay: flow cytometry of particle uptake, 12 hours at 37 °C; KCM cells (human MUC1) against KCKO cells (MUC1 knockout)).
T2 construct: also called tMUC1; tumor-associated glycosylated MUC1
T2 sequence (P15941 other isoform, or with tags, fused parts or gaps limits assumed): as the sequence (P15941 other isoform, or with tags, fused parts or gaps limits assumed) above

Binder	fold increase in uptake by KCM cells as compared to KCKO cells [fold]
TAB-004 antibody-conjugated mesoporous silica nanoparticle (antibody, V domains shown, antibody coupled by EDC to the carboxylic acid groups of a PEG-2K linker on an FITC-labelled mesoporous silica nanoparticle; site not stated, Many copies of TAB-004 on one particle; also called TAB-004-MSN) VH: EVQLQQSGGERATPGASVKMSCKTSGYTFTNYWMHWVKQRPGQGLEWIGYINPSSGYTQYNQKFKDKATLTADKSSSTAYIQLSSLTSEDSAVYYCSTYYGDYLFPYWGQGTLVTVSA VL: DVLMTQTPLSLPVSLGDQASISCRSSQDIVYGNGNTYLEWYLQKPGQSPKLLIYKVSNRFSGVPDRFSGSGSGTDFTLKISRVEAEDLGVYYCFQGSHVPYTFGGGTKLEIKR	8
